Assay results published in patent US20050054563A1 (Genentech, published 2005).

Tests used:
[1] = target: T1, mouse WISP-1-IgG (chimeric recombinant mouse WISP-1 bearing a human immunoglobulin Fc fragment tag) (mouse); experiment: competition solid phase assay: 0.25 nM WISP-1-IgG on coated human skin fibroblast conditioned media, soluble decorin varied
T1 construct: also called mWISP-1-IgG; WISP-1-Fc
Experimental: (§1) Decorin and biglycan were coated to microtiter wells overnight. Non-specific binding sites were saturated and 0.25 nM of mWISP-1-IgG was incubated for 2 hours. The wells were washed and incubated with horseradish peroxidase conjugated anti-human IgG Fc′ (2 μg/ml) for 1 hour. After 6 washes with PBS containing 0.05% Tween-20, a signal was developed by the incubation of a chromogenic substrate. The color development was stopped by the addition of 1 M phosphoric acid and the O.D. at 450 nm was measured.
(§2) Fifty microliters of human skin fibroblast conditioned media were coated in wells of microtiter plates. Non-specific binding sites were saturated and 0.25 nM of WISP-1-IgG was incubated in the presence of various concentrations of decorin (filled circles) or biglycan (empty circles) (FIG. 5B) for 2 hours. The binding of mWISP-1-IgG was evaluated as described above.

[2] = target: T1, mouse WISP-1-IgG (chimeric recombinant …); experiment: competition solid phase assay: 0.25 nM WISP-1-IgG on coated human skin fibroblast conditioned media, soluble biglycan varied
Experimental: as §1, §2

T1 sequence (chain, as listed by the source mutant limits assumed): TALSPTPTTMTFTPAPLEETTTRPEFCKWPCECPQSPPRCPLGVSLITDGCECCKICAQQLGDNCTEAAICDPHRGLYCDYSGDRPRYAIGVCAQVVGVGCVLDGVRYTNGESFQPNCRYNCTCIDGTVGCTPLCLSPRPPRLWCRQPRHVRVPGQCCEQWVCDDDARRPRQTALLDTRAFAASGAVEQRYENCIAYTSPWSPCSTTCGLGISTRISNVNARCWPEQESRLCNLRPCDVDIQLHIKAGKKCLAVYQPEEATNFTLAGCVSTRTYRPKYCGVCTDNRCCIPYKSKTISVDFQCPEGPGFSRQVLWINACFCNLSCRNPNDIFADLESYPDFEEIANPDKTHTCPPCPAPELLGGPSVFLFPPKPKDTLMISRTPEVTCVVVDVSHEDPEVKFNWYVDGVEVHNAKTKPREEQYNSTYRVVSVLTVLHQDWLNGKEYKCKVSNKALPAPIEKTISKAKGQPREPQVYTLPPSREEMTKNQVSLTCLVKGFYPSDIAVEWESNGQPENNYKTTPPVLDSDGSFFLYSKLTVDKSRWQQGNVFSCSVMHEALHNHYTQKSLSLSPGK

IC50 [1] | IC50 [2] | Binder
70 µg/mL |  | decorin from bovine articular cartilage (Sigma) (other, UniProt P21793 31-360, looked up, proteoglycan; dermatan sulfate glycosaminoglycan chain on the core protein (site not stated for this preparation)) DEASGIGPEEHFPEVPEIEPMGPVCPFRCQCHLRVVQCSDLGLEKVPKDLPPDTALLDLQNNKITEIKDGDFKNLKNLHTLILINNKISKISPGAFAPLVKLERLYLSKNQLKELPEKMPKTLQELRVHENEITKVRKSVFNGLNQMIVVELGTNPLKSSGIENGAFQGMKKLSYIRIADTNITTIPQGLPPSLTELHLDGNKITKVDAASLKGLNNLAKLGLSFNSISAVDNGSLANTPHLRELHLNNNKLVKVPGGLADHKYIQVVYLHNNNISAIGSNDFCPPGYNTKKASYSGVSLFSNPVQYWEIQPSTFRCVYVRAAVQLGNYK
 | 105 µg/mL | biglycan from bovine articular cartilage (Sigma) (other, UniProt P21809 38-369, looked up, proteoglycan; glycosaminoglycan chains on the core protein (sites not stated for this preparation)) DEEASGAETTSGIPDLDSLPPTYSAMCPFGCHCHLRVVQCSDLGLKAVPKEISPDTTLLDLQNNDISELRKDDFKGLQHLYALVLVNNKISKIHEKAFSPLRKLQKLYISKNHLVEIPPNLPSSLVELRIHDNRIRKVPKGVFSGLRNMNCIEMGGNPLENSGFEPGAFDGLKLNYLRISEAKLTGIPKDLPETLNELHLDHNKIQAIELEDLLRYSKLYRLGLGHNQIRMIENGSLSFLPTLRELHLDNNKLSRVPAGLPDLKLLQVVYLHTNNITKVGVNDFCPVGFGVKRAYYNGISLFNNPVPYWEVQPATFRCVTDRLAIQFGNYKK
